Source: patent US20170224836A1 (Novartis, published 2017)
Read-outs that look alike come from different tables or passages of the source.

T1: CDH6 wt (human, UniProt P55285 54-615)
T1 sequence: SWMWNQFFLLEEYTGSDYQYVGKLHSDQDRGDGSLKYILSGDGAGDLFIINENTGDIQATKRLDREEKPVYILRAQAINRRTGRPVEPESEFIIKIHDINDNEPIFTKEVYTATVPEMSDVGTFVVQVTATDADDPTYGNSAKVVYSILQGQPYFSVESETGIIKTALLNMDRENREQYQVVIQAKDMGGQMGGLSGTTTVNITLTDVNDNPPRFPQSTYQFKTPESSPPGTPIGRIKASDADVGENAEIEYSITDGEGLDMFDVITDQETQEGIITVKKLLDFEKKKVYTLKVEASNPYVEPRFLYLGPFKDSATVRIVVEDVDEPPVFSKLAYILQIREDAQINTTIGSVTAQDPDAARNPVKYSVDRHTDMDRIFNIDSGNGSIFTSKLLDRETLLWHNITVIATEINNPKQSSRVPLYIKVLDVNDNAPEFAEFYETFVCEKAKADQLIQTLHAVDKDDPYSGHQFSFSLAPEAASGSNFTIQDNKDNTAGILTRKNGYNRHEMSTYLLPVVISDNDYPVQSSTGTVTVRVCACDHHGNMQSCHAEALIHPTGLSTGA

T2: hCDH6aa54-615 APPavi (human, UniProt P55285 54-615)
T2 sequence: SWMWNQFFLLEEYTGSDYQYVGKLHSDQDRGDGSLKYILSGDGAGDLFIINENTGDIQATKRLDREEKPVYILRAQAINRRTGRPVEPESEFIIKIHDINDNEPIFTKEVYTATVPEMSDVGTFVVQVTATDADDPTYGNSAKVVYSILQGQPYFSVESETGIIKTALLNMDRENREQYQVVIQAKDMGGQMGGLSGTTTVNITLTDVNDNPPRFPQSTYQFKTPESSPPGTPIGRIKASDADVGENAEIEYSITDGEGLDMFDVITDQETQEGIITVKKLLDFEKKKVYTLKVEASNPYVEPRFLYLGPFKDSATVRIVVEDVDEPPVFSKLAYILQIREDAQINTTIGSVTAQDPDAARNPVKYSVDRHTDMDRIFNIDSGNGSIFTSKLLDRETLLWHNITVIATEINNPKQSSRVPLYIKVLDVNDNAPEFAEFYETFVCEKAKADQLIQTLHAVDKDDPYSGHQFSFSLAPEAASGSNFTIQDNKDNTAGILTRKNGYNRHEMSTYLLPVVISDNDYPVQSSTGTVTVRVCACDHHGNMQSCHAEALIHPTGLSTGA

T3: mouse CDH6 on cells (mouse, UniProt P97326 54-790)
T3 sequence (looked up): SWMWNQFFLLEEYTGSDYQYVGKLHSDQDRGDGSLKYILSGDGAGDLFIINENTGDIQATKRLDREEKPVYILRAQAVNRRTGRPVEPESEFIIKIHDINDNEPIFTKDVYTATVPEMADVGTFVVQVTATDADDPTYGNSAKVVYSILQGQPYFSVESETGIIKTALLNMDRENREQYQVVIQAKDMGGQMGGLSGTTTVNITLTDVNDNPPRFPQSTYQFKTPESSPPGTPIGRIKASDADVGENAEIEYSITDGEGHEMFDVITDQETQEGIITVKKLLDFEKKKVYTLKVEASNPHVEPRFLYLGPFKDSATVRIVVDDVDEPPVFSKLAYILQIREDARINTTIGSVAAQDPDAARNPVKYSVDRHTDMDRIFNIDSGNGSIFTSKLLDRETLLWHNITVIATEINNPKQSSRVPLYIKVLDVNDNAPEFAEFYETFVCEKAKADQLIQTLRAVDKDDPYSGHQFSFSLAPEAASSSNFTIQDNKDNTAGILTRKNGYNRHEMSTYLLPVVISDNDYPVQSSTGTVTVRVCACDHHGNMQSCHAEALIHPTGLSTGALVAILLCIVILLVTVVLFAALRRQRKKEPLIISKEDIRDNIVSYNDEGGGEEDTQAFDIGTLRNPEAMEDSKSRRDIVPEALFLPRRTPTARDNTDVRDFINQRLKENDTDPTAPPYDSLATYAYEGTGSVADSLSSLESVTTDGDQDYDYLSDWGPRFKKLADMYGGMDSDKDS

T4: cynomolgus CDH6 on cells (cynomolgus, UniProt A0A2K5TW62 54-790)
T4 sequence: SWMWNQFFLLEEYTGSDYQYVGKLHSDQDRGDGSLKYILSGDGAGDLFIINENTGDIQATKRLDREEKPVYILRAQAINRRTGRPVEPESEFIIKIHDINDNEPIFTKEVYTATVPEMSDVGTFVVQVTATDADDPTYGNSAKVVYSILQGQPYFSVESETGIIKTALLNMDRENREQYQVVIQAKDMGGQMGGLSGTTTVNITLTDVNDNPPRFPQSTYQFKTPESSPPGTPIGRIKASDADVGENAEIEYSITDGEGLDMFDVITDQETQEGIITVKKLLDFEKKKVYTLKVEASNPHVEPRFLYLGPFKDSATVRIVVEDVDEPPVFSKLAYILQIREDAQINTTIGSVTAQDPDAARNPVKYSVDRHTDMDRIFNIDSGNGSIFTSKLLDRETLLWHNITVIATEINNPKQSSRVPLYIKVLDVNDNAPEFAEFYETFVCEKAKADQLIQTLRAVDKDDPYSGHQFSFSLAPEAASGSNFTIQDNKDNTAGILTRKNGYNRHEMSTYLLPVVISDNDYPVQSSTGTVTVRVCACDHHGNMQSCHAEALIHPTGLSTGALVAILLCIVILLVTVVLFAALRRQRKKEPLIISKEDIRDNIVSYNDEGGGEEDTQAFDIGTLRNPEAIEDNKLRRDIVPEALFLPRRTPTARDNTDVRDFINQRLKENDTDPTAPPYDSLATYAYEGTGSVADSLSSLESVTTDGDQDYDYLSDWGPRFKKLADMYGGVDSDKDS

T5: rat CDH6 on cells (rat, UniProt P55280 54-789)
T5 sequence (looked up): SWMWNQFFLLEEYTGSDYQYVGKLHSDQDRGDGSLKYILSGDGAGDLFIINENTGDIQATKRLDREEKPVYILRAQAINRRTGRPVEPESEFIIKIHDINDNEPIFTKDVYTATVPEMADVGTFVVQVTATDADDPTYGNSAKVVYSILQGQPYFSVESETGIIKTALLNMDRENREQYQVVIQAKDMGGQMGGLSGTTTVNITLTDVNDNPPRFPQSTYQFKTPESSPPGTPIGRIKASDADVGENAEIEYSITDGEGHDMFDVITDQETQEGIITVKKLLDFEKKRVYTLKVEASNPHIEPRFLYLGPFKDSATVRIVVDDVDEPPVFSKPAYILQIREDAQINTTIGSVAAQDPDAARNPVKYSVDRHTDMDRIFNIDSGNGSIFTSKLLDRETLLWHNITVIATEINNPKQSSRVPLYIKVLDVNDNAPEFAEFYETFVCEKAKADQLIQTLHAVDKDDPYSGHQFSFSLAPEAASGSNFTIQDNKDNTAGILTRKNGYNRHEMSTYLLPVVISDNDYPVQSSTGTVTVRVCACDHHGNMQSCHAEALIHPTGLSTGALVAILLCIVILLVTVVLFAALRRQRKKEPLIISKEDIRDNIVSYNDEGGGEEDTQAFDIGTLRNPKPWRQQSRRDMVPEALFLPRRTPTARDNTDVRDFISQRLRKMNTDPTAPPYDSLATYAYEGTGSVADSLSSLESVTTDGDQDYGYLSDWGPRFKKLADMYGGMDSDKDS

T6: human CDH6 on cells (human, UniProt P55285 54-790)
T6 sequence: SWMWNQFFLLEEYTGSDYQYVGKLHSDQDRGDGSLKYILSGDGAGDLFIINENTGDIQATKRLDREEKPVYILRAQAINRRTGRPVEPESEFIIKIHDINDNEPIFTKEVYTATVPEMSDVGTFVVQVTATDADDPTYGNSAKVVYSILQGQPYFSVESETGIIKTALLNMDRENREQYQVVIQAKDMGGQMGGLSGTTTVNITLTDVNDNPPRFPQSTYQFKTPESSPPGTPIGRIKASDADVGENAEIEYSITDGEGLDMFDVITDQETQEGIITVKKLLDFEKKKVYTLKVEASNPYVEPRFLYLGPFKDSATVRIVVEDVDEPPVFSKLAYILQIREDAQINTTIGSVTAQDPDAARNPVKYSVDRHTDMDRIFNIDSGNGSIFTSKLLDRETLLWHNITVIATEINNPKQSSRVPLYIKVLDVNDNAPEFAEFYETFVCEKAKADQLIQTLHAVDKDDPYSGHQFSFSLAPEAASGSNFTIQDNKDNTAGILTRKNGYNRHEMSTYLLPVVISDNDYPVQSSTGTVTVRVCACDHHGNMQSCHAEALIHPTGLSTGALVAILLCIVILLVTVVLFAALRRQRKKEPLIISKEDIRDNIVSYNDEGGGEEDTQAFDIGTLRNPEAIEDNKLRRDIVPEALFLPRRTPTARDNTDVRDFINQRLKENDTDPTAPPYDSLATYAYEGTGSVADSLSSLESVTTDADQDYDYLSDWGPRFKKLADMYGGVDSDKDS


Key:
[1] = target: T1, CDH6 wt; experiment: ELISA on coated CDH6-wt
[2] = target: T2, hCDH6aa54-615 APPavi; experiment: SPR binning
[3] = target: T2, hCDH6aa54-615 APPavi; experiment: SPR binning; remark: listed apart in the source
[4] = target: T2, hCDH6aa54-615 APPavi; experiment: SPR binning; remark: listed apart in the source
[5] = target: T2, hCDH6aa54-615 APPavi; experiment: SPR binning; remark: listed apart in the source
[6] = target: T2, hCDH6aa54-615 APPavi; experiment: SPR binning; remark: listed apart in the source
[7] = target: T2, hCDH6aa54-615 APPavi; experiment: SPR binning; remark: listed apart in the source
[8] = target: T2, hCDH6aa54-615 APPavi; experiment: SPR binning; remark: listed apart in the source
[9] = target: T3, mouse CDH6 on cells; experiment: FACS on CHO-mouseCDH6 cells
[10] = target: T4, cynomolgus CDH6 on cells; experiment: FACS on CHO-cynoCDH6 cells
[11] = target: T5, rat CDH6 on cells; experiment: FACS on CHO-ratCDH6 cells
[12] = target: T6, human CDH6 on cells; experiment: FACS on OVCAR8-CDH6+ cells, EC50 [M] table
[13] = target: T6, human CDH6 on cells; experiment: FACS on OVCAR3 cells
[14] = target: T6, human CDH6 on cells; experiment: FACS on CHO-TO-humanCDH6 cells plus tetracycline

Binder	EC50 (read off the curve) [1] [nM]	response of secondary antibody on primary antibody-CDH6 complex [2]	response of secondary antibody on primary antibody-CDH6 complex [3]	response of secondary antibody on primary antibody-CDH6 complex [4]	response of secondary antibody on primary antibody-CDH6 complex [5]	response of secondary antibody on primary antibody-CDH6 complex [6]	response of secondary antibody on primary antibody-CDH6 complex [7]	response of secondary antibody on primary antibody-CDH6 complex [8]	EC50 (read off the curve) [9] [nM]	EC50 (read off the curve) [10] [nM]	EC50 (read off the curve) [11] [nM]	EC50 [12] [nM]	EC50 (read off the curve) [13] [nM]	EC50 (read off the curve) [14] [nM]
NOV0710 (antibody, human IgG1, kappa, V domains shown) VH: QVQLLESGGGLVQPGGSLRLSCAASGFTFSSYAMSWVRQAPGKGLEWVSVIRSSGSSTYYADSVKGRFTISRDNSKNTLYLQMNSLRAEDTAVYYCARGGGYFDYWGQGTLVTVSS VL: DIQMTQSPSSLSASVGDRVTITCRASQSISLWLNWYQQKPGKAPKLLIYAASTLQSGVPSRFSGSGSGTDFTLTISSLQPEDFATYYCQQYYTSPYTFGQGTKVEIKR	~200	21.9	-3.56	15	10.6	32.7	8.84	-2.17						
NOV0712-sulfo-SPDB-DM4 (antibody, human IgG1, kappa, V domains shown, sulfo-SPDB-DM4 on primary amines, sites not stated) VH: QVQLLESGGGLVQPGGSLRLSCAASGFTFSSHGMHWVRQAPGKGLEWVSVISGSGSNTGYADSVKGRFTISRDNSKNTLYLQMNSLRAEDTAVYYCARQWGSYAFDSWGQGTLVTVSS VL: DIQMTQSPSSLSASVGDRVTITCRASQSISSYLNWYQQKPGKAPKLLIYAVSTLQSGVPSRFSGSGSGTDFTLTISSLQPEDFATYYCQQSGTFPPTTFGQGTKVEIKR									~0.7	~0.7	~0.7	0.715	~0.4	~0.5
